System: engineered chimeric receptor SEQ ID NO: 33 and its mutants (human α7-nAChR ligand binding domain / human GlyRα1 ion pore domain) in Lenti-X 293T cells
Test: YFP fluorescence quenching anion reporter plate reader assay (percent quench, EC50)
Type: cell-based
Settings: for YFP fluorescence quenching using CNL001 (percent quench): receptor named in row; for YFP fluorescence quenching using Varenicline, 3 nM var: ligand Varenicline 3 nM; for YFP fluorescence quenching using Varenicline, 30 nM var: ligand Varenicline 30 nM; for YFP fluorescence quenching using Varenicline, 300 nM var: ligand Varenicline 300 nM; for YFP fluorescence quenching using Varenicline, 500 nM var: ligand Varenicline 500 nM; for YFP fluorescence quenching using Varenicline, 1 uM var: ligand Varenicline 1 uM
How it was run: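 Lenti-X 293T cells co-expressing an anion-quenchable YFP were transiently transfected with receptor DNA, then ligand was added in NaI-substituted buffer (pH 7.2) after 30 min at 37 °C. Fluorescence was read about 2 min; percent quench = mean of last 10 s over 15 s pre-ligand baseline.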

B1: CODA405: engineered receptor: Y210V in SEQ ID NO: 33 (protein)
chain: MRCSPGGVWLALAASLLHVSLQGEFQRKLYKELVKNYNPLERPVANDSQPLTVYFSLSLLQIMDVDEKNQVLTTNIWLQMSWTDHYLQWNVSEYPGVKTVRFPDGQIWKPDILLYNSADERFDATFHTNVLVNSSGHCQYLPPGIFKSSCPMDLKNFPMDVQTCKLKFGSWSYGGWSLDLQMQEADISGYIPNGEWDLVGIPGKRSERFVECCKEPYPDVTFTVTMRRRMGYYLIQMYIPSLLIVILSWISFWINMDAAPARVGLGITTVLTMTTQSSGSRASLPKVSYVKAIDIWMAVCLLFVFSALLEYAAVNFVSRQHKELLRFRRKRRHHKSPMLNLFQEDEAGEGRFNFSAYGMGPACLQAKDGISVKGANNSNTTNPPPAPSKSPEEMRKLFIQRAKKIDKISRIGFPMAFLIFNMFYWIIYKIVRREDVHNQ
modifications: synthetic sequence of chimeric LGIC
B1 was tested, and the “YFP fluorescence quenching using CNL001 (percent quench)” value (1 nM CNL001, first column so headed) was −16.246%, the “YFP fluorescence quenching using CNL001 (percent quench)” value (1 nM CNL001, second column so headed) was −4.217% and the “YFP fluorescence quenching using TC-5619/Bradanicline (percent quench)” value (3 nM brd (TC-5619/Bradanicline)) was 9.92%. The “YFP fluorescence quenching using CNL001 (percent quench)” value (10 nM CNL001, first column so headed) was −6.142%, the “YFP fluorescence quenching using CNL001 (percent quench)” value (10 nM CNL001, second column so headed) was −10.003% and the “YFP fluorescence quenching using TC-5619/Bradanicline (percent quench)” value (30 nM brd (TC-5619/Bradanicline)) was 4.37%. For the same molecule, the “YFP fluorescence quenching using CNL001 (percent quench)” value (50 nM CNL001, first column so headed) was −11.054%, the “YFP fluorescence quenching using CNL001 (percent quench)” value (50 nM CNL001, second column so headed) was −10.06% and the “YFP fluorescence quenching using ABT-126 (percent quench)” value (50 nM abt (ABT-126)) was −2.9%. For the same molecule, the “YFP fluorescence quenching using CNL001 (percent quench)” value (100 nM CNL001, first column so headed) was −3.832%, the “YFP fluorescence quenching using CNL001 (percent quench)” value (100 nM CNL001, second column so headed) was −3.784% and the “YFP fluorescence quenching (percent quench)” value (100 nM CNL002) was −14.3%. The “YFP fluorescence quenching using ABT-126 (percent quench)” value (100 nM abt (ABT-126)) was −2.06%, the “YFP fluorescence quenching using AZD-0328 (percent quench)” value (100 nM azd0328) was −8.13% and the “YFP fluorescence quenching using ABT-126 (percent quench)” value (300 nM abt (ABT-126)) was −0.19%. The “YFP fluorescence quenching using AZD-0328 (percent quench)” value (300 nM azd0328) was −3.35%, the “YFP fluorescence quenching using TC-5619/Bradanicline (percent quench)” value (300 nM brd (TC-5619/Bradanicline)) was 59% and the “YFP fluorescence quenching using CNL001 (percent quench)” value (1 uM CNL001, first column so headed) was 1.129%. For the same molecule, the “YFP fluorescence quenching using CNL001 (percent quench)” value (1 uM CNL001, second column so headed) was 7.1%, the “YFP fluorescence quenching (percent quench)” value (1 uM CNL002) was −7.56% and the “YFP fluorescence quenching using ABT-126 (percent quench)” value (1 uM abt (ABT-126)) was −3.64%. For the same molecule, the “YFP fluorescence quenching (percent quench)” value (10 uM ach (acetylcholine)) was −6.31%, the “YFP fluorescence quenching (percent quench)” value (30 uM CNL002) was −2.02% and the “YFP fluorescence quenching using AZD-0328 (percent quench)” value (30 uM azd0328) was −2.86%. The “YFP fluorescence quenching (percent quench)” value (100 uM ach (acetylcholine)) was −14.48%, the “YFP fluorescence quenching (percent quench)” value (1 mM ach (acetylcholine)) was −2.82% and the “YFP fluorescence quenching (percent quench)” value (3 mM ach (acetylcholine)) was 1.06%. The “YFP fluorescence quenching using Facinicline, 30 nM fac” value (ligand Facinicline 30 nM) was −26.25, the “YFP fluorescence quenching using Facinicline, 300 nM fac” value (ligand Facinicline 300 nM) was −23.52 and the “YFP fluorescence quenching using Facinicline, 30 uM fac” value (ligand Facinicline 30 uM) was 0.83. For the same molecule, the “YFP fluorescence quenching using TC-6987, 1 uM tc6987” value (ligand TC-6987 1 uM) was −22.63, the “YFP fluorescence quenching using TC-6987, 10 uM tc6987” value (ligand TC-6987 10 uM) was −23.03 and the “YFP fluorescence quenching using TC-6987, 500 uM tc6987” value (ligand TC-6987 500 uM) was −40.88. For the same molecule, the “YFP fluorescence quenching using Varenicline, 3 nM var” value (first column) was 7.317, the “YFP fluorescence quenching using Varenicline, 3 nM var” value (second column) was 7.643 and the “YFP fluorescence quenching using Varenicline, 30 nM var” value (first column) was 9.457. The “YFP fluorescence quenching using Varenicline, 30 nM var” value (second column) was 9.134, the “YFP fluorescence quenching using Varenicline, 300 nM var” value (first column) was 15.503 and the “YFP fluorescence quenching using Varenicline, 300 nM var” value (second column) was 11.954. For the same molecule, the “YFP fluorescence quenching using Varenicline, 500 nM var” value (first column) was 13.427, the “YFP fluorescence quenching using Varenicline, 500 nM var” value (second column) was 10.784 and the “YFP fluorescence quenching using Varenicline, 1 uM var” value (first column) was 9.032. The “YFP fluorescence quenching using Varenicline, 1 uM var” value (second column) was 11.591.

Source: patent US20250152742A1, “COMPOSITIONS AND METHODS FOR NEUROLOGICAL DISEASES” (Trames Bio, Inc., priority 2022, published 2025)
